We go through three molecules from US10406218B2 (priority 2014, dated 2019).

The subject of the test is T cells of LTBI and HC donors. Nature of the test: antigen reactivity in LTBI vs HC donors (LTBI-specific or crossreactive). Type of test: cell-based, human. Conditions: response frequency and magnitude in LTBI vs HC donors, FIG. 10. From the text: The data herein implies that preexisting immunity and occasional boosting might be provided by exposure to NTMs, in a low MTB-complex exposure population such as the one from the general San Diego area. This might be viewed as desirable, or alternatively contributing an undesired confounding factor in evaluation of vaccination strategies. Regardless, whether or not preexisting, non-TB-complex related reactivity is present in the general population is an important issue has implication for the development of vaccination strategies. To further investigate this issue, epitope reactivity data (Lindestamm-Arlehamn et al, 2012) was mapped back to the specific antigens from which the epitopes were derived. Antigens recognized by 2 or more donors were further categorized as LTBI-specific or crossreactive according to the following criteria; antigens were categorized as LTBI-specific if there was a lack of reactivity in HC individuals, or if the ratio between response frequency and total SFC for LTBI/HC were >4. All other antigens were categorized as crossreactive.

B1: Rv0288: MTB antigen currently included in TB vaccines in clinical development (protein, UniProt P9WNK3 1-96, looked up)
ESAT-6-like protein EsxH: MSQIMYNYPAMLGHAGDMAGYAGTLQSLGAEIAVEQAALQSAWQGDTGITYQAWQAQWNQAMEDLVRAYHAMSSTHEANTMAMMARDTAEAAKWGG
As for B1, the “antigen reactivity category (LTBI-specific or crossreactive)” value (shortened to “antigen reactivity category”) is listed as “widely cross-reactive”.

B2: Rv1196: MTB antigen currently included in TB vaccines in clinical development (protein, UniProt L7N675 1-391, looked up)
PPE family protein PPE18: MVDFGALPPEINSARMYAGPGSASLVAAAQMWDSVASDLFSAASAFQSVVWGLTVGSWIGSSAGLMVAAASPYVAWMSVTAGQAELTAAQVRVAAAAYETAYGLTVPPPVIAENRAELMILIATNLLGQNTPAIAVNEAEYGEMWAQDAAAMFGYAAATATATATLLPFEEAPEMTSAGGLLEQAAAVEEASDTAAANQLMNNVPQALQQLAQPTQGTTPSSKLGGLWKTVSPHRSPISNMVSMANNHMSMTNSGVSMTNTLSSMLKGFAPAAAAQAVQTAAQNGVRAMSSLGSSLGSSGLGGGVAANLGRAASVGSLSVPQAWAAANQAVTPAARALPLTSLTSAAERGPGQMLGGLPVGQMGARAGGGLSGVLRVPPRPYVMPHSPAAG
Turning to B2, the “antigen reactivity category” value is “exclusively specific”.

B3: Rv1886c: MTB antigen currently included in TB vaccines in clinical development (protein, UniProt P9WQP1 41-325, looked up)
Diacylglycerol …: FSRPGLPVEYLQVPSPSMGRDIKVQFQSGGNNSPAVYLLDGLRAQDDYNGWDINTPAFEWYYQSGLSIVMPVGGQSSFYSDWYSPACGKAGCQTYKWETFLTSELPQWLSANRAVKPTGSAAIGLSMAGSSAMILAAYHPQQFIYAGSLSALLDPSQGMGPSLIGLAMGDAGGYKAADMWGPSSDPAWERNDPTQQIPKLVANNTRLWVYCGNGTPNELGGANIPAEFLENFVRSSNLKFQDAYNAAGGHNAVFNFPPNGTHSWEYWGAQLNAMKGDLQSSLGAG
For B3, the “antigen reactivity category” value is “widely cross-reactive”.
